How the values were obtained:
Conditions in all cases: reference: WT HSP90α, after IR; sites T5,T7
liver kinase B1 (LKB1) = liver kinase B1 (LKB1) (UniProt Q9WTK7); experiment: anti-LKB1 IP, anti-Flag blot
androgen receptor (AR) = androgen receptor (AR) (UniProt P19091); experiment: co-immunoprecipitation
[1] = biological target: endothelial nitric oxide synthase (eNOS) (UniProt P70313); experiment: co-immunoprecipitation
[2] = biological target: glucocorticoid receptor (GR) (UniProt P06537); experiment: anti-GR IP, anti-Flag blot

Measured: binding against the reference

HSP90α (from UniProt P07901) T5,7A HSP90α, after IR
stronger: all assays above

— PMC5485859
